From patent US20150224182A1 (UNIVERSITY OF VIRGINIA PATENT FOUNDATION, published 2015) come the findings set out here.

The experiment concerns the target T1, HLA B*0702 (human).
T1 construct: Class I MHC molecule of the cells from which the associated phosphopeptides were detected; also called HLA-B7
The experiment in a line: MS of peptides eluted from HLA; L/M column: L.

Non-standard residues stand in square brackets, D forms with d. No end group written: not given here. pT = C[C@@H](OP(=O)(O)O)[C@H](N)C(=O)O; pS = N[C@@H](COP(=O)(O)O)C(=O)O

In the case of RPKLS[pS]PAL [RPKLSsPAL], the binding result is given as “binds”. To RRS[pS]LDAEIDSL [RRSsLDAEIDSL] belongs “binds”; to RSL[pS]PLLF [RSLsPLLF], “binds”; to KPA[pS]PKFIVTL [KPAsPKFIVTL], “binds”. The value for RPA[pS]AGAML [RPAsAGAML] was “binds”. The value for RPPPPPD[pT]PP [RPPPPPDtPP] was “binds”; that for SPGLARKR[pS]L [SPGLARKRsL] was “binds”.

RPD[pS]RLGKTEL [RPDsRLGKTEL]: the binding result is given as “binds”.

Take TPI[pS]PGRASGM [TPIsPGRASGM]: the binding result was “binds”. For VPR[pS]PKHAHSSSL [VPRsPKHAHSSSL], the binding result is “binds”.

With KPP[pS]PEHQSL [KPPsPEHQSL], the binding result was “binds”. Take RPP[pS]SEFLDL [RPPsSEFLDL]: the binding result is “binds”. The value for RPRPH[pS]APSL [RPRPHsAPSL] was “binds”. In the case of RSG[pS]LERKV [RSGsLERKV], the binding result is “binds”.

In the case of FRR[pS]PTKSSL [FRRsPTKSSL], the binding result is “binds”.

SPR[pS]PGKPM [SPRsPGKPM]: the binding result was “binds”. With QPR[pS]PGPDYSL [QPRsPGPDYSL], the binding result was “binds”.

RSL[pS]PGGAA [RSLsPGGAA]: the binding result is reported as “binds”. Consider RPR[pS]PRQNSI [RPRsPRQNSI], for which the binding result is “binds”. The value for RPR[pS]PGSNSKV [RPRsPGSNSKV] was “binds”. Turning to FSI[pS]PVRL [FSIsPVRL], the binding result was “binds”. On to RSE[pS]KDRKL [RSEsKDRKL], for which the binding result was “binds”.

Consider RPH[pS]PEKAF [RPHsPEKAF], for which the binding result is given as “binds”.

Regarding SPK[pS]PGLKA [SPKsPGLKA], the binding result is given as “binds”.

As for RP[pS]SPALYF [RPsSPALYF], the binding result is listed as “binds”. The value for SPR[pS]PSTTYL [SPRsPSTTYL] was “binds”; that for EPKRR[pS]ARL [EPKRRsARL] was “binds”; that for RPY[pS]PPFFSL [RPYsPPFFSL] was “binds”.

In the case of RPR[pS]LEVTI [RPRsLEVTI], the binding result is given as “binds”. The value for KPPH[pS]PLVL [KPPHsPLVL] was “binds”. As for RPQRA[pT]SNVF [RPQRAtSNVF], the binding result is reported as “binds”.

Take RAP[pS]PSSRM [RAPsPSSRM]: the binding result was “binds”. Regarding RPSRS[pS]PGL [RPSRSsPGL], the binding result was “binds”.

On to RPR[pS]PSPIS [RPRsPSPIS], for which the binding result was “binds”.

On to KPQTRGK[pT]F [KPQTRGKtF], for which the binding result is “binds”. Take RPR[pS]PTGP [RPRsPTGP]: the binding result was “binds”. For the molecule RPKPSS[pS]PV [RPKPSSsPV], the binding result is recorded as “binds”. For the molecule RPR[pS]AVLL [RPRsAVLL], the binding result was “binds”.

Turning to RPA[pT]GGPGVA [RPAtGGPGVA], the binding result was “binds”.

For RPR[pS]PTGP[pS]NSF [RPRsPTGPsNSF], the binding result is listed as “binds”. For FRR[pS]PTKSSLDY [FRRsPTKSSLDY], the binding result was “binds”. To RPQRAT[pS]NVF [RPQRATsNVF] belongs “binds”. Take RPI[pT]PPRNSA [RPItPPRNSA]: the binding result was “binds”. To RPW[pS]PAVSA [RPWsPAVSA] belongs “binds”. As for KPY[pS]PLASL [KPYsPLASL], the binding result is “binds”. Consider SPS[pS]PSVRRQL [SPSsPSVRRQL], for which the binding result is listed as “binds”. The value for RPR[pS]PAARL [RPRsPAARL] was “binds”. As to SPEKAGRR[pS]SL [SPEKAGRRsSL], the binding result was “binds”.

For the molecule RRK[pS]QVAEL [RRKsQVAEL], the binding result is “binds”. Take SPA[pS]PKISL [SPAsPKISL]: the binding result was “binds”. As for RPV[pS]PGKDI [RPVsPGKDI], the binding result is “binds”. The value for RPAK[pS]MDSL [RPAKsMDSL] was “binds”; that for KPPYRSH[pS]L [KPPYRSHsL] was “binds”; that for RPV[pT]PVSDL [RPVtPVSDL] was “binds”. To RTE[pS]DSGLKK [RTEsDSGLKK] belongs “binds”; to RPN[pS]PSPTAL [RPNsPSPTAL], “binds”. To RPP[pS]PGPVL [RPPsPGPVL] belongs “binds”; to TPAQPQRR[pS]L [TPAQPQRRsL], “binds”; to RPRAN[pS]GGVDL [RPRANsGGVDL], “binds”.

Regarding RPF[pS]PREAL [RPFsPREAL], the binding result was “binds”. The value for KPP[pT]PGASF [KPPtPGASF] was “binds”.

Regarding KPR[pS]PDHVL [KPRsPDHVL], the binding result is given as “binds”.

Consider LPA[pS]PRARL [LPAsPRARL], for which the binding result is on record as “binds”.

For the molecule KPA[pS]PARRL [KPAsPARRL], the binding result was “binds”.

Turning to SPSTSRSGG[pS]SRL [SPSTSRSGGsSRL], the binding result is listed as “binds”.
